Experimental data as given in patent publication US20220127354A1 (Amgen, published 2022).
One block for each binder: values may come before it.

Experiments:
Experiment in all cases: flow cytometry, transfected 293T cells, 2 mM CaCl2
[1] = target: T1, muCDH19(44-770)::huCDH19(271) with leader and FLAG (construct Z) (human/mouse chimera)
T1 construct: leader (1-43 of the entry) left out
T1 chain: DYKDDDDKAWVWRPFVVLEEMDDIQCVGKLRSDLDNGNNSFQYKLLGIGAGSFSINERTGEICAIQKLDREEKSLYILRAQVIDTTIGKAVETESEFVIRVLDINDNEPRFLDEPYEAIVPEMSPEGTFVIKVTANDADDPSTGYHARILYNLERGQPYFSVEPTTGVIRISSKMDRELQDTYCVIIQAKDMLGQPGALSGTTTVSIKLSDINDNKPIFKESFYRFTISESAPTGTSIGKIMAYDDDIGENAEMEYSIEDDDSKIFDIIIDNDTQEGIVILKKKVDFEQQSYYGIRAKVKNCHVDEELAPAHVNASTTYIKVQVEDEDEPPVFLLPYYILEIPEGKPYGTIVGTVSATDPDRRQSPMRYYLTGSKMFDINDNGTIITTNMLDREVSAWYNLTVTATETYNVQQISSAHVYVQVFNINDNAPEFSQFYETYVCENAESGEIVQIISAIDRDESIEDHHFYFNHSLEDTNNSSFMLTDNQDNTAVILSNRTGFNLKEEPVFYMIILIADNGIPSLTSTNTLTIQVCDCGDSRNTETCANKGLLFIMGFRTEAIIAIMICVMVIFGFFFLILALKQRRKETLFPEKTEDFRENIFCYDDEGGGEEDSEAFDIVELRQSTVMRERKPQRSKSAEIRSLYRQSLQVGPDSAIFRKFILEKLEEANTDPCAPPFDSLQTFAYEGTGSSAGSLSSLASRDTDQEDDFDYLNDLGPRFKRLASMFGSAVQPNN
Procedure: (§1) The following binding assay was completed in presence of 2 mM CaCl₂). […] Cells were then washed one time and the amount of cell associated Alexa647-labelled Ab was quantitated by flow cytometry. The experiments included mock transfected controls.

[2] = target: T2, caCDH19(1-42)::FLAG::caCDH19(43-770) (construct Q, Ca EC1-5) (dog)
T2 construct: also called caCDH19(44-770); dog Cadherin19
T2 chain: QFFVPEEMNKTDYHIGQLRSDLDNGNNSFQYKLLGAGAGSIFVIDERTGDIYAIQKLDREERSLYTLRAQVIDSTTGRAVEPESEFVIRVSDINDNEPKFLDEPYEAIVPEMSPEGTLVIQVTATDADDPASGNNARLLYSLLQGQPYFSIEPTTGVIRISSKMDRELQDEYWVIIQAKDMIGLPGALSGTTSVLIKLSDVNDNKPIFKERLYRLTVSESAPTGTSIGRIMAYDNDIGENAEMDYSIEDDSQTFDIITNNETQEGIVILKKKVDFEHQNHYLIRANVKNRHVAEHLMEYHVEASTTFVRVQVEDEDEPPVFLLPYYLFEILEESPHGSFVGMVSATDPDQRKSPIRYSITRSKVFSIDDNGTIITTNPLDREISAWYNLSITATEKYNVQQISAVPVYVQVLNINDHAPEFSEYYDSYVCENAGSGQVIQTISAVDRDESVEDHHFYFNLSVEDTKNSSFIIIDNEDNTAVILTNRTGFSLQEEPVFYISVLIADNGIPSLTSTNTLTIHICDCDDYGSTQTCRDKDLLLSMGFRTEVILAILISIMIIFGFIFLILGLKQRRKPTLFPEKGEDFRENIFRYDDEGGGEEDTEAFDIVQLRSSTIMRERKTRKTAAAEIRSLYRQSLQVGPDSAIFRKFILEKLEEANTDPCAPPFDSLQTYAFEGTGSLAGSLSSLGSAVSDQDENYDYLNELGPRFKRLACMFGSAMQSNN
Procedure: as §1

[3] = target: T3, caCDH19(1-43)::FLAG::caCDH19(44-87)::rhCDH19(89-114)::caCDH19(115-770) (construct T, rh EC1b) (rhesus macaque/dog chimera)
T3 construct: leader left out
T3 chain: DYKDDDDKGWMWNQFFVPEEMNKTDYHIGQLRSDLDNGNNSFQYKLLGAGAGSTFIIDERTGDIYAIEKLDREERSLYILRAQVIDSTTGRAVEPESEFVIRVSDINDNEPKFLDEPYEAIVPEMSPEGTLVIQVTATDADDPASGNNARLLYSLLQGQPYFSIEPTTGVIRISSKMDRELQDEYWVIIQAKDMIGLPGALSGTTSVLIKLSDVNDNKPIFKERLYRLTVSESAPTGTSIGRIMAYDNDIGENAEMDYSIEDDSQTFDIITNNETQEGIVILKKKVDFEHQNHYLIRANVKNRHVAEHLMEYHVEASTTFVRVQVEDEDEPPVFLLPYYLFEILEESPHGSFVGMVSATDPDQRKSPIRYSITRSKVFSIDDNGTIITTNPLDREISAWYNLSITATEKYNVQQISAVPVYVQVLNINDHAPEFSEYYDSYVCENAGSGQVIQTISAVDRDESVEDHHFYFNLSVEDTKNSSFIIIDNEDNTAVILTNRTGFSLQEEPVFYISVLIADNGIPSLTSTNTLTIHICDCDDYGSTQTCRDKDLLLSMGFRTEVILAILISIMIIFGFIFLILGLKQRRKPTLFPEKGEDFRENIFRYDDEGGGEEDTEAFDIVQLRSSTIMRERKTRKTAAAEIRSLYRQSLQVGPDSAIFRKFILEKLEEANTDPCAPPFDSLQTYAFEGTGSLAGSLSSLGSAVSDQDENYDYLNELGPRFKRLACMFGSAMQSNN
Procedure: as §1

binding result [1]: binds
B1: anti-CDH19 antibody 2G6 (Ab ID 13588) (antibody, human IgG1, lambda, V domains shown)
VH: QVQLVESGGGVVQPGRSLRLSCAASGFTFSSYGMHWVRQAPGKGLEWVAFIWYDGSNKYYADSVKDRFTISRDNSKNTLYLQMKSLRAEDTAVYYCARRAGIIGTIGYYYGMDVWGQGTTVTVSS
VL: SYELTQPPSVSVSPGQTASITCSGDRLGEKYTCWYQQRPGQSPLLVIYQDTKRPSGIPERFSGSNSGNTATLTISGTQAMDEADYYCQAWDSSTVVFGGGTKLTVLG
notes: Bin 4

binding result [2]: no binding (tested: 5 ug/ml)
binding result [3]: binds
B2: hu anti-<huCDH19> 26D1.1 (Ab ID 13882) (antibody, human IgG1, lambda, V domains shown)
VH: QVQLVQSGAEVKKPGASVKVSCKASRYTFTSYYMSWVRQAPGQGLEWMGIIHPSGGDTTYAQKFQGRVTMTGDTSTSTVYMELSSLRSEDTAVYYCARGGIKLWLHFDYWGQGTLVTVSS
VL: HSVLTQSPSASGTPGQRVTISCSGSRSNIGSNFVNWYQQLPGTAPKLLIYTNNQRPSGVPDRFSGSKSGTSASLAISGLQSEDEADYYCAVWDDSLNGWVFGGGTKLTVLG
notes: huIgG1z / huLLC-C2; Bin 2

binding result [1]: no binding (tested: 5 ug/ml)
B3: hu anti-<huCDH19> 4B10 (Ab ID 13590) (antibody, V domains shown)
VH: QVQLVESGGGVVQPGRSLRLSCAASGFTFSSYDMHWVRQAPGKGLEWVAVISYDGTNEYYADSVKGRFTISRDTSKNTLYLQMNSLRAEDTAVYYCARERYFDWSFDYWGQGTLVSVSS
VL: EIVLTQSPGTLSLSPGERATLSCRASQSVSNTYLAWYHQRPGQAPRLLIYGASSRATGIPDRFSGSGSGTDFALTISSLEPEDFAVYYCQQYSNSWTFGQGTKVEIKR
notes: huIgG1z / huKLC; Bin 4

binding result [2]: no binding (tested: 5 ug/ml)
binding result [3]: no binding (tested: 5 ug/ml)
B4: hu anti-<huCDH19> 4A9 (Ab ID 13589) (antibody, human IgG1, lambda, V domains shown)
VH: QVQLQESGPGLVKPSETLSLTCTVSGGSISGYYWSWIRQPPGKGLEWFAYFSYSGSTNYNPSLKSRVTLSVDTSKNQFSLKLSSVTAADTAVYYCARNWAFHFDFWGQGTLVTVSS
VL: QSVLTQPPSVSGAPGQRVTISCTGSSSNIGTGYAVHWYQQFPGTAPKLLIYGNNNRPSGVPDRFSGSKSGTSASLAITGLQAEDEADYYCQSYDSRLSGWVFGGGTKLTVLG
notes: huIgG1z / huLLC-C1; Bin 1
